Experimental data as given in patent publication US20120076797A1, “Modulation of kit signaling and hematopoietic cell development by IL-4 receptor modulation” (priority 2010, published 2012).
Entries after “also recorded” stand apart in the source; their conditions may differ.

B1: IL-4: recombinant mouse interleukin 4 (Invitrogen), cognate ligand of IL-4R, used to stimulate murine HSC (protein)
chain: HIHGCDKNHLREIIGILNEVTGEGTPCTEMDVPNVLTATKNTTESELVCRASKVLRIFYLKHGKTPCLKKNSSVLMELQRLFRAFRCLDSSISCTMNESKSTSLKDFLESLKSIMQMDYS

Key:
Format in all cases: cell-based
[1] = test system: IL-4R (IL-4Rα and γc subunits); test: KL stimulation of M07e cells; immunoprecipitation of IL-4R subunits and phosphotyrosine immunoblotting; details: growth factor- and serum-deprived 12 hours, 250 ng/ml recombinant human KL, no IL-4
Procedure: (§1) Cell culture. M07e cells (DSMZ, Braunschweig, Germany) were cultured in RPMI-1640 (Invitrogen/Gibco, Carlsbad, Calif.) with 10% fetal calf serum (FCS; Omega Scientific, Tarzana, Calif.) in the presence of human IL-3 (20 ng/ml; Biosource, Camarillo, Calif.) and human IL-4 (20 ng/ml; R&D Systems Inc, Minneapolis, Minn.). For stimulation of Kit with Kit ligand (KL), M07e cells were growth factor—as well as serum-deprived for 12 hours prior to stimulation with 250 ng/ml of recombinant human KL (Biosource, Camarillo, Calif.).
(§2) Immunoprecipitation and immunoblotting. Immunoprecipitation and immunoblotting were performed as reported previously (Mani, M. et al. Blood 114, 2900-2908 (2009)). Following stimulation with KL, cells were collected in ice-cold PBS containing 1 mM sodium ortho-vanadate (Sigma, St. Louis, Mo.), resuspended at a density of 1×10^7-2×10^7 cells/ml in lysis buffer containing 10 mM Tris-HCl (pH7.4), 150 mM NaCl, 20 mM sodium phosphate (pH7.4), 10 mM sodium pyrophosphate (pH7.4), 5 mM EDTA, 1 mM sodium ortho-vanadate, 1 mM glycerophosphate (Sigma) and 1% Triton X-100, and lysed. Protease inhibitors (Complete Protease Inhibitor Cocktail, Roche, Indianapolis, Ind.) were added according to manufacturer's recommendations. Post-nuclear supernatants were subjected to one round of pre-clearing with Protein A Sepharose (Amersham/Pharmacia, Piscataway, N.J.). […]

[2] = biological target: T1, Kit (Homo sapiens, UniProt P10721); test: KL stimulation of M07e cells; phosphorylation of Kit; details: 250 ng/ml recombinant human KL
T1 construct: M07e cells are known to express both Kit and IL-4R; host or cells: M07e (human megakaryoblastic cell line)
Procedure: as §1, §2

[3] = test system: murine HSC (Lin-Sca-1+Kit+); IL-4R/STAT6; test: Intracellular phospho-STAT6 analysis (Phospho-Flow) of murine HSC after IL-4 stimulation; details: murine bone marrow Lin-Sca-1+Kit+ HSC, 1 ng/ml recombinant mouse IL-4, 15 min
Source text: Intracellular phospho-STAT6 analysis. Cells derived from c-Kit(BAC)-EGFP mice that are transgenic for a bacterial artificial chromosome expressing EGFP under the control of the Kit promoter were used instead of anti-Kit antibodies (Tallini, Y. N. et al. Proc Natl Acad Sci USA 106, 1808-1813 (2009)). Freshly isolated murine bone marrow mononuclear cells were suspended in cold RPMI-1640 containing 10% FBS and stained with PE-CY7 conjugated anti-mouse Sca-1 (BD Biosciences, San Jose, Calif., Cat 558162) and PE conjugated anti-mouse lineage cocktail (Biolegend, San Diego, Calif. Cat: 78035) at 4° C. for 60 min. The cells were washed with cold RPMI-1640 containing 10% FBS and resuspended in pre-warmed RPMI-1640 containing 10% FBS at concentration of 5-10 million cells/ml. Cells were transferred as 0.5 ml aliquots into flow cytometry test tubes (BD Biosciences, Falcon 2052), rested at 37° C. for 1 hr and stimulated with 1 ng/ml of recombinant mouse IL-4 (Invitrogen, Cat: PMC 0045) for 15 min. Cells were fixed by adding 25 μl of 32% paraformaldehyde (EM grade, Electron Microscopy Sciences, Hatfield, Pa., Cat: 15714) at room temperature for 10 min. […] Samples were washed (centrifugation at 1800 rpm for 5 min) once with staining buffer and analyzed on an FACS Aria II (BD Biosciences). The results were analyzed using Flow Jo software.

T1 sequence (P10721 26-976): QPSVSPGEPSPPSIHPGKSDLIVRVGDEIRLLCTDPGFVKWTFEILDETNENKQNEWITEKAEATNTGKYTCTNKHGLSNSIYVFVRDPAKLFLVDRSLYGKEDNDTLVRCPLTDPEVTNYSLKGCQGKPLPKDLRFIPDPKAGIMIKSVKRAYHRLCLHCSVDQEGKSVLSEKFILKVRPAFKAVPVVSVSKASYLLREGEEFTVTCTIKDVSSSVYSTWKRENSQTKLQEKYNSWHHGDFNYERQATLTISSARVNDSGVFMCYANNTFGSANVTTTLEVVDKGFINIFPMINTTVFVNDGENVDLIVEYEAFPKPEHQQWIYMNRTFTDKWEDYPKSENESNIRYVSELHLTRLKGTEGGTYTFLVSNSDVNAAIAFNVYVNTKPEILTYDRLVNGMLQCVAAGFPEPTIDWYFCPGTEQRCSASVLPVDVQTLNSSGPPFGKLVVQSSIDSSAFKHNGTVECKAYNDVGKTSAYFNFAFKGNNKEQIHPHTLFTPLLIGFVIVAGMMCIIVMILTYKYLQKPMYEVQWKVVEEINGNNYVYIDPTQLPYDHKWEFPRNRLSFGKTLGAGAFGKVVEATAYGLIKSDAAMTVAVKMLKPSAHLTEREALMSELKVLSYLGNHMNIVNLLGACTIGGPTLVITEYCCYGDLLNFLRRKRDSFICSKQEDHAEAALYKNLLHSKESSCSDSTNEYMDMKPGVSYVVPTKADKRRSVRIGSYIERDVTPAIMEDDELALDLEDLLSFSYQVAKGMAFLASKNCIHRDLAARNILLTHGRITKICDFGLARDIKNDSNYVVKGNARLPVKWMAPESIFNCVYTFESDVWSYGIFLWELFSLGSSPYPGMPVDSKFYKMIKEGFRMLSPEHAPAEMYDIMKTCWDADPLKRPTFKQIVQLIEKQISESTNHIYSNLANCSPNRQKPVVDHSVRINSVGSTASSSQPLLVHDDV

Molecule	time to tyrosine phosphorylation of IL-4Rα and γc subunits of IL-4R after KL treatment [1] [min]	phosphorylation of Kit after KL stimulation [2]	STAT6 phosphorylation in response to IL-4 stimulation [3]
KL: recombinant human Kit ligand (Biosource), ligand of the Kit receptor, used to stimulate M07e cells	≤ 5	rapid phosphorylation of Kit	–
B1	–	–	STAT6 phosphorylation was observed; also recorded: STATE phosphorylation
